Assay results: patent US12325866B2, “Systems and methods for growing cells in vitro” (Yissum Research Development Company of the Hebrew …, priority 2016, dated 2025)

Key:
[1] = tested on: primary chicken embryonic fibroblasts (CEF); assay: Proliferation of primary CEF in serum-free media / with supplements; type: cell-based; details: serum-free medium, or minimal medium plus supplement (EGF 5 ng/ml, PGE2 0.01 μM, GH 10 ng/ml)
Description: The CSIFs readily grow on tissue culture plastic in DMEM/F12 medium supplemented with 15% FBS, and 2 mM of […] (FIG. 2D). There are several serum-free medium formulations for the growth of human and mouse fibroblasts, including PCS-201-040 (ATCC) and […] To develop a serum-free medium that supports the culture of CEF and CS IF, the present inventor formulated a minimal medium composed of DMEM/F12 supplemented with 0.1 μM dexamethasone, 10 μg/ml insulin, 5.5 μg/ml transferrin, and 5 ng/ml selenium (ITS), 12 μM linoleic and 12 μM oleic acids, and 2 mM of […]. Cells were plated in FBS containing medium, and transferred to minimal medium after overnight attachment. Basal medium was supplemented with growth factors and hormones showing that while heparin and T3 had little effect of CSIF growth (data not shown), the addition of basic Fibroblast Growth Factor (bFGF, 10 ng/ml) was essential (FIGS. 3C and 3F), showing 20±2 hours doubling time (data not shown).

CSIF = assay: Serum-free medium development: sulforhodamine B stain and protein content after 72 hours; type: cell-based, chicken; details: supplement added to minimal serum-free medium; bFGF 10 ng/ml, EGF 5 ng/ml, PGE2 0.01 μM, GH 10 ng/ml
Description: FIGS. 3A-F depict the development and identification of serum-free medium for CSIF propagation. Shown are sulforhodamine B stain (FIGS. 3A-E) and protein content quantification (FIG. 3F) following 72 hours of culture with 15% serum (“FBS”), minimal serum-free medium (MIN) alone (FIG. 3B) or with 10 ng/ml basic Fibroblast Growth Factor (bFGF, FIG. 3C), 5 ng/ml Epidermal Growth Factor (EGF, FIG. 3D), 0.01 μM Prostaglandin E2 (PGE2, FIG. 3E), or 10 ng/ml Growth Hormone. Serum-free medium (SFM) contained MIN medium supplemented with bFGF (10 ng/ml), EGF (5 ng/ml), and PGE2 ([…]).
To develop a serum-free medium that supports the culture of CEF and CS IF, the present inventor formulated a minimal medium composed of DMEM/F12 supplemented with 0.1 μM dexamethasone, 10 μg/ml insulin, 5.5 μg/ml transferrin, and 5 ng/ml selenium (ITS), 12 μM linoleic and 12 μM oleic acids, and 2 mM of L-Analyl-L-Glutamine. Cells were plated in FBS containing medium, and transferred to minimal medium after overnight attachment. Basal medium was supplemented with growth factors and hormones showing that while heparin and T3 had little effect of CSIF growth (data not shown), the addition of basic Fibroblast Growth Factor (bFGF, 10 ng/ml) was essential (FIGS. 3C and 3F), showing 20±2 hours doubling time (data not shown).

B1: EGF: epidermal growth factor (protein, UniProt P01133 23-1207, looked up)
Pro-epidermal growth factor: PQHWSCPEGTLAGNGNSTCVGPAPFLIFSHGNSIFRIDTEGTNYEQLVVDAGVSVIMDFHYNEKRIYWVDLERQLLQRVFLNGSRQERVCNIEKNVSGMAINWINEEVIWSNQQEGIITVTDMKGNNSHILLSALKYPANVAVDPVERFIFWSSEVAGSLYRADLDGVGVKALLETSEKITAVSLDVLDKRLFWIQYNREGSNSLICSCDYDGGSVHISKHPTQHNLFAMSLFGDRIFYSTWKMKTIWIANKHTGKDMVRINLHSSFVPLGELKVVHPLAQPKAEDDTWEPEQKLCKLRKGNCSSTVCGQDLQSHLCMCAEGYALSRDRKYCEDVNECAFWNHGCTLGCKNTPGSYYCTCPVGFVLLPDGKRCHQLVSCPRNVSECSHDCVLTSEGPLCFCPEGSVLERDGKTCSGCSSPDNGGCSQLCVPLSPVSWECDCFPGYDLQLDEKSCAASGPQPFLLFANSQDIRHMHFDGTDYGTLLSQQMGMVYALDHDPVENKIYFAHTALKWIERANMDGSQRERLIEEGVDVPEGLAVDWIGRRFYWTDRGKSLIGRSDLNGKRSKIITKENISQPRGIAVHPMAKRLFWTDTGINPRIESSSLQGLGRLVIASSDLIWPSGITIDFLTDKLYWCDAKQSVIEMANLDGSKRRRLTQNDVGHPFAVAVFEDYVWFSDWAMPSVMRVNKRTGKDRVRLQGSMLKPSSLVVVHPLAKPGADPCLYQNGGCEHICKKRLGTAWCSCREGFMKASDGKTCLALDGHQLLAGGEVDLKNQVTPLDILSKTRVSEDNITESQHMLVAEIMVSDQDDCAPVGCSMYARCISEGEDATCQCLKGFAGDGKLCSDIDECEMGVPVCPPASSKCINTEGGYVCRCSEGYQGDGIHCLDIDECQLGEHSCGENASCTNTEGGYTCMCAGRLSEPGLICPDSTPPPHLREDDHHYSVRNSDSECPLSHDGYCLHDGVCMYIEALDKYACNCVVGYIGERCQYRDLKWWELRHAGHGQQQKVIVVAVCVVVLVMLLLLSLWGAHYYRTQKLLSKNPKNPYEESSRDVRSRRPADTEDGMSSCPQPWFVVIKEHQDLKNGGQPVAGEDGQAADGSMQPTSWRQEPQLCGMGTEQGCWIPVSSDKGSCPQVMERSFHMPSYGTQTLEGGVEKPHSLLSANPLWQQRALDPPHQMELTQ
modifications: Pro-epidermal growth factor
- Proliferation of primary CEF [1]: supported the proliferation
- Effect on CSIF growth / proliferation (CSIF): supported the proliferation
